From the supplement of paper PMC9112550, “Optimization of the antimicrobial peptide Bac7 by deep mutational scanning” (BMC Biology, 2022)

Test system: Escherichia coli TOP10
Test: shrunken log2 fold change of peptide-encoding DNA abundance (4.5 h post-induction vs induction); higher = less antimicrobial activity (less host growth inhibition)
Conditions: time post-induction: 4.5 h; library: site-saturation at positions 5, 18, 19, 20
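Note: peptides expressed intracellularly from a pBAD plasmid library in pooled LB shake-flask culture, induced with 0.3% L-arabinose, DNA abundance read by NGS, three biological replicates, DESeq2 with apeglm shrinkage.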

Sequence | shrunken log2 fold change
RRIRWRPPRLPRPRPRPSRAPRP | 0.397
RRIRDRPPRLPRPRPRPNNQPRP | -0.513
RRIRWRPPRLPRPRPRPGWKPRP | 0.0668
RRIRIRPPRLPRPRPRPPEIPRP | -0.578
RRIRCRPPRLPRPRPRPFEEPRP | -0.0957
RRIRARPPRLPRPRPRPEMAPRP | 0.739
RRIRKRPPRLPRPRPRPTQMPRP | 0.8
RRIRERPPRLPRPRPRPSNFPRP | -0.909
RRIRHRPPRLPRPRPRPSMIPRP | -0.23
RRIRIRPPRLPRPRPRPITRPRP | 0.0378
RRIRRRPPRLPRPRPRPRYKPRP | -0.0686
RRIRTRPPRLPRPRPRPSKGPRP | -0.605
RRIRCRPPRLPRPRPRPEEWPRP | 0.0214
RRIRHRPPRLPRPRPRPMLYPRP | -1.49
RRIRSRPPRLPRPRPRPACTPRP | 0.28
RRIRKRPPRLPRPRPRPFEKPRP | -0.045
RRIRIRPPRLPRPRPRPKAFPRP | -0.122
RRIRIRPPRLPRPRPRPSATPRP | -0.17
RRIRHRPPRLPRPRPRPSGWPRP | -0.291
RRIRQRPPRLPRPRPRPYMVPRP | -0.176
RRIRIRPPRLPRPRPRPVTFPRP | -0.00574
RRIRKRPPRLPRPRPRPELYPRP | 0.0137
RRIRARPPRLPRPRPRPPNTPRP | 0.289
RRIRCRPPRLPRPRPRPVKYPRP | -0.596
RRIRERPPRLPRPRPRPRQLPRP | -0.0334
RRIRRRPPRLPRPRPRPNICPRP | 0.0828
RRIRSRPPRLPRPRPRPMRQPRP | 0.728
